As a reminder, the Kd is the free concentration of one partner at which half of the binding sites on the other are occupied at equilibrium, for simple one-to-one binding. The low end stands for higher affinity, the high end for lower affinity. In general, koff refers to a measure of how fast the partners let go of each other. Low readings indicate slow dissociation, high ones fast dissociation. For orientation: kon means the second-order rate constant of association. High values mean fast association, low ones slow association.

Our source for the Kd, koff and kon values is US20260077041A1.

The target in one experiment is IL-17A (human) (UniProt Q16552). As to the kind of experiment: SPR (Biacore T200), drug captured on protein A chip, IL-17A as analyte, multi-cycle. (In general: In SPR one partner is held on a chip, and binding of the other changes the refractive index at the surface.)
Sequence of IL-17A (human) (Q16552 24-155 limits assumed): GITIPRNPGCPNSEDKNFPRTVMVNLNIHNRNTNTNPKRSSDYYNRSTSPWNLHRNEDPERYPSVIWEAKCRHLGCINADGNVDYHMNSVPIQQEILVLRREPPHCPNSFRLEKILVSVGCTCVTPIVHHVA
For a further experiment, the target named is TNFα (human) (UniProt P01375). Description: SPR (Biacore T200), drug captured on protein A chip, TNFα as analyte, multi-cycle.
Sequence of TNFα (human) (P01375 77-233 limits assumed): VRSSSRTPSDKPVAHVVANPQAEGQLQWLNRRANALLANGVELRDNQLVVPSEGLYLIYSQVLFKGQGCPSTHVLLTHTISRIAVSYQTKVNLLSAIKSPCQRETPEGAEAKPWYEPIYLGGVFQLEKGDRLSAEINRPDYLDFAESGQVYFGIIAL

In the experiment with IL-17A (human), Cosentyx (antibody) came in with a dissociation constant (Kd) of 0.0787 nM, a koff of 6.12e-05 s⁻¹ and an association rate constant (kon) of 778000 M⁻¹ s⁻¹.
On to Humira (antibody), for which, in the experiment with TNFα (human), the dissociation constant Kd was 0.16 nM, the off-rate constant (koff) was determined as 0.00015 s⁻¹ and the kon was determined as 941000 M⁻¹ s⁻¹.
